Reference: the nanobody polyreactivity screen of Harvey et al. (2022)

Test: yeast display, Sf9 membrane polyspecificity reagent, FACS + sequencing; frameworks hold sequencing errors
Outline: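 Genes from sorted yeast were amplified by colony PCR, read by MiSeq 2 × 250 sequencing and filtered on CDR length. These cells carried a synthetic nanobody library in Saccharomyces cerevisiae BJ5465 and were sorted by FACS into low and high (top ~1%) gates on anti-HA and streptavidin fluorescence. Polyreactivity is labelled according to the gate of origin.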

## QVQLVESGGGLVQAGGSLRLTCAASGFTFHVNTMGWYRQAPGKEMELVAAISWSGGSTYYADSVKGRFTISRDTAKKTVYLQMNSLNPEDTAVYYCNAVPVSYRGVYWGQGTQVTVSS
  polyreactivity (PSR sort gate): low polyreactivity

## QVQLVESGGGLVQAGGSLRLTCAASGFTFRSYAMGWYRQAPGKEREWVAVISSSGGSTYYADSVKARFTISRDNAKNTVYLQMNSLKPEDTAVYYCNRRPATRAYLYDYWGQGTQVTGSS
  polyreactivity (PSR sort gate): high polyreactivity

## QVQLVESGGGLVQAGGSLRLTCAASGFTFSYYTMGRYRQAPGKERELVAAISSGGSTYYADSVKGRFTISRDNAKNSVYLQMNSLKPEDTAVYYCNAYYGSYSPANGEYWGQGTQVTVSS
  polyreactivity (PSR sort gate): high polyreactivity

## QVQLVESGGGLVQAGGSLRLTCAASGFTFYRYDMGWYRQAPGKERELVAAITNNGGNTYYADSVKGRFTISRDNAKNTVYLQMNSLKPDVTAVYYCATKRYYWRGYWGQGTQVSVSS
  polyreactivity (PSR sort gate): high polyreactivity

## QVQLVESGGGLVQAGGSLRLTCAASGFTIYLYTMGWYRQAPGKERELVATISWSGGSTYYADSVKGRFTISRDNAKNTVYLHMNSLKPEDTAVYYCAKAYNGRYTWRYDYWGQGTQVTVSS
  polyreactivity (PSR sort gate): high polyreactivity

## QVQLVESGGGLVQAGGSLRLTCAASGGTFDRNAMGWYRQAPGKERELVATITRRAGNTYYAYSVKGRFTISRDNAKNTVYLQMNSLKPEDTAVYYFAAYPLRSRRYYYWGQGTQVTVSS
  polyreactivity (PSR sort gate): high polyreactivity

## QVQLVESGGGLVQAGGSLRLTCAASGGTFQVNAMGWYRQAPGKEMELVAAINRSGGGTTYADSVKGRFTISRDNAKNTVYLQMNSLKPEDTAVYYCAVDFYTYYYVEYGYWGQGTEVTVSS
  polyreactivity (PSR sort gate): high polyreactivity

## QVQLVESGGGLVQAGGSLRLTCAASGIIFASNAMGWYRQAPGKEMELVATINWTDSSTYYADSVKGRFTISRDNAKNTVYLQMNSLKPEDTAVYYCNGVPHWFYRYGRYDYWGQGSQVTVSS
  polyreactivity (PSR sort gate): low polyreactivity

## QVQLVESGGGLVQAGGSLRLTCAASGIIFLDYVMGWYRQAPGKERELVAAINSGGSTYYADSVKGRFTISRDNAKNTVYLQMNSLKPEDTAVYYCAAVDYYKFDYWGQVTQVTVSS
  polyreactivity (PSR sort gate): low polyreactivity

## QVQLVESGGGLVQAGGSLRLTCAASGIIFQRNTMGWYRQAPGKERELVAAITSRGGRTYYADSVKGRFTISRDNAKNTVYLQMNSLKPEDTAVYYCAALLYFYSRPYGYWGQGTQVTVSS
  polyreactivity (PSR sort gate): high polyreactivity

## QVQLVESGGGLVQAGGSLRLTCAASGIIFRFYGMGWYRQEPGKEREFVAAISGGGGSTYYADSVKGRFTISRDNAKKTVYLQMNSLKPEDTAVYYCARYTYRSAFEYWGQGTQVTVSS
  polyreactivity (PSR sort gate): high polyreactivity

## QVQLVESGGGLVQAGGSLRLTCAASGIIFRGYAMGWYRQPPGKERELVAGITSGVRTYYADSVKGRFTISRDNAKNTVYLQMTSLKPEDTAVYYSNADAYGDDWKIYDYWGQGTQVTVSS
  polyreactivity (PSR sort gate): low polyreactivity

## QVQLVESGGGLVQAGGSLRLTCAASGIIFYPYAMGWYRQAPGKERELVAAISIGGGSTYYADSVKGRFTISRDNAKNTVYLQMNSLKPEDTAVYYCAAGTPYGILGYYYWGQGTQVTVSS
  polyreactivity (PSR sort gate): low polyreactivity

## QVQLVESGGGLVQAGGSLRLTCAASGITFKYYAMGWYRQAPGKERELVAAIRGSGGGTNYADSVKGRFTISRDNAMNTVYLQMNSLKQEDSAVYYCAAANWRRNDYRYRFDYWGQGTQVTVSS
  polyreactivity (PSR sort gate): high polyreactivity

## QVQLVESGGGLVQAGGSLRLTCAASGITFRKYAMGWYRQAPGKERELVAGIRYSGSSTYYADSVKGRFTISRDNAKNTVYLQMNSLKPEDTAVYYGATGGYVWYRSVNVWTRMDYWGQGTQVTVSS
  polyreactivity (PSR sort gate): high polyreactivity

## QVQLVESGGGLVQAGGSLRLTCAASGITFYYYAMGWYRQAPAKERELVAAISFRGGSTYYADSVKARFTISRDNPKNTFYLQMNSLNPEDTAVYYCASVTSPSWYTWVTYDYWGQGTQVTVSS
  polyreactivity (PSR sort gate): high polyreactivity

## QVQLVESGGGLVQAGGSLRLTCAASGITLLYNAMGWYRQAPGKESELVAGITGRGGSTYYADSVKGRFTISRDNAKNTVYLQMNSLKPEDTAVYYCAATTDYRYVGRIVIRDEHWGQGTQVTVSS
  polyreactivity (PSR sort gate): low polyreactivity

## QVQLVESGGGLVQAGGSLRLTCAASGITLYNYAMGWYRQAPGKERELVAAISLSGGRTYYADSVKGRFTISRDNAKNTVYLQMNSLKPEDTAVYYCAADWLNSDPYNYWGQGTQVTVSS
  polyreactivity (PSR sort gate): low polyreactivity

## QVQLVESGGGLVQAGGSLRLTCAASGLFYAMGWYRQAPGKQRELVAAISSVGSTNYADSVKGRFTISRDNAKNTVYLQMNSLKPEDTAVYYCAAYFYTYPVDRYGSYYWGQGTQLTVSS
  polyreactivity (PSR sort gate): low polyreactivity

## QVQLVESGGGLVQAGGSLRLTCAASGLIFRPYTMGWYRQAPGKERELVATISGSGASTNYADSVKGRFTNSRDNAKNTVYFQMNSLKPEDTSVYYCKGRSYSRMYYWGQGTQVTVSS
  polyreactivity (PSR sort gate): high polyreactivity

## QVQLVESGGGLVQAGGSLRLTCAASGLTFAGYAMGWYRQAPGKERELVAYITTSGGSTHYADSVKGRFTISRDNAKNTVYLQMNSLKPEDTAVYYCAAEGYPGDNELIGAFDYWGQGTQVTVSS
  polyreactivity (PSR sort gate): low polyreactivity

## QVQLVESGGGLVQAGGSLRLTCAASGLTFGFNAMGWYRQAPGKERELVAAISSRGGSTYYADSVKGRFTISRDNAKNTVYLQMNSLKPEDTAVYYCAVRYYSPYGYWGQGTQVTVSS
  polyreactivity (PSR sort gate): low polyreactivity

## QVQLVESGGGLVQAGGSLRLTCAASGLTFGGNAMGWYRQAHRKERELVAAISWSDDTTDYADSVKGRFTISRDNAKNSVYLQMNSLNPEDTAIYYCAARLPFEHVDYWGQGTQVTVSS
  polyreactivity (PSR sort gate): low polyreactivity

## QVQLVESGGGLVQAGGSLRLTCAASGLTFTYYAMGWYRQAPGKERELVAAISASGGNTYYADSVKGRFTISRDNAKNTVYLQMNSLKPEDTAVFYCAAESSIYRGYGYSGQGTQVTVSS
  polyreactivity (PSR sort gate): high polyreactivity

## QVQLVESGGGLVQAGGSLRLTCAASGNIFYTYAMGWYRQPPGKERELVAGLSSDGSTTYADSVKGRFTISRDNAKNTVYLQMNSLNPEDTAVYYCPADITGILWYGYYYWGQGTQVTVSS
  polyreactivity (PSR sort gate): low polyreactivity

## QVQLVESGGGLVQAGGSLRLTCAASGNTFSPNAMGWYRHAPGKERELVAAIDSRDGITYYADSVKGRFTISRDNAKNTVYLQMNSLKPEDTAVYYCAADEWYGESNFWGQGTQVTVSS
  polyreactivity (PSR sort gate): low polyreactivity

## QVQLVESGGGLVQAGGSLRLTCAASGNTFWDNAMRWYRQAPGKERELVAAIRWSTGSTHYADSVKGRFTISRDNAKNTVYLQMNSLKPEDTAVYDCAATDYYYYRDKYYGYVYWGQGTHVTVSS
  polyreactivity (PSR sort gate): low polyreactivity

## QVQLVESGGGLVQAGGSLRLTCAASGNTFYGKTIGWYRQAPGKERELVAAIRFTGGSTTYADSVKGRFTISRDNAKITVYLQLNRLKPEDTAVYYCNTVWVSFSSIYHEYDYWGQGTQVTVSS
  polyreactivity (PSR sort gate): low polyreactivity

## QVQLVESGGGLVQAGGSLRLTCAASGRIFAVYAMGWYRQAPGKERELVATISSSGSTHYADSVKGRFTISRDNAKNTVYLQMNSLKPEDTAVYYCNAGGSELKLGHDYWGQGTQVTVSS
  polyreactivity (PSR sort gate): low polyreactivity

## QVQLVESGGGLVQAGGSLRLTCAASGRIFGYYAKGWYSQAPGKERELGATITFGGGSTCYADSVKGRFTISRDNAKKTVYLQMNSLKPEDTAVYYCAADSGYLGIYGDEYSWGQGTQVTVSS
  polyreactivity (PSR sort gate): low polyreactivity

## QVQLVESGGGLVQAGGSLRLTCAASGRIFIYNTMGWYRQAPGTERELVATISSGGRTYYADSVKGRFTISRDNAKNTVYFQMNSLKPEDTAVYYCNARRRYYSVWRGWDNELDYWGQGTQVTVSS
  polyreactivity (PSR sort gate): high polyreactivity

## QVQLVESGGGLVQAGGSLRLTCAASGRIFKQYAMGWYRQAPGKEMELVATISSGGDTNYADSVKGRFTISRDNAKNTVYLQMNSLKPEDTAVYFCAAGDIYYAEYEYWGKGTQVTVSS
  polyreactivity (PSR sort gate): low polyreactivity
